For test [1], the target named is T1, human CD3 expressed on Jurkat cells (human, UniProt P07766 23-207).
T1 construct: CD3 complex on Jurkat T cells; also called CD3 on Jurkat cells; huCD3
As to the kind of experiment: flow cytometry on Jurkat cells. Here is the method:
Binding of the different bispecific constructs to CD3 on Jurkat cells (ATCC #TIB-152), and the respective tumor antigen on target cells, was determined by FACS. Briefly, cells were harvested, counted and checked for viability. 0.15-0.2 million cells per well (in PBS containing 0.1% BSA; 90 μl) were plated in a round-bottom 96-well plate and incubated with the indicated concentration of the bispecific constructs and corresponding IgG controls (10 μl) for 30 min at 4° C. […] After the incubation, cells were centrifuged (5 min, 350×g), washed with 150 μl PBS containing 0.1% BSA, resuspended and incubated for further 30 min at 4° C. with 12 μl/well of a FITC- or PE-conjugated secondary antibody. Bound constructs were detected using a FACSCantoII (Software FACS Diva). The “(scFv)₂” molecule was detected using a FITC-conjugated anti-His antibody (Lucerna, #RHIS-45F-Z). For all other molecules, a FITC- or PE-conjugated AffiniPure F(ab′)2 Fragment goat anti-human IgG Fcγ Fragment Specific (Jackson Immuno Research Lab #109-096-098/working solution 1:20, or #109-116-170/working solution 1:80, respectively) was used. Cells were washed by addition of 120 μl/well PBS containing 0.1% BSA and centrifugation at 350×g for 5 min. A second washing step was performed with 150 μl/well PBS containing 0.1% BSA. […] EC50 values were calculated using the GraphPad Prism software.
As a control, the equivalent maximum concentration of the corresponding IgGs and the background staining due to the labeled 2ndary antibody (goat anti-human FITC-conjugated AffiniPure F(ab′)2 Fragment, FcγFragment-specific, Jackson Immuno Research Lab #109-096-098) were assessed as well.
A general note: In flow cytometry, cells or beads pass a laser one at a time.

For test [2], the target named is T2, human CEA expressed on tumor cells (LS-174T, A549-huCEA, MKN-45, MC38-huCEA, HPAFII, BxPC-3, ASPC-1) (human, UniProt P06731 35-685).
T2 sequence (looked up): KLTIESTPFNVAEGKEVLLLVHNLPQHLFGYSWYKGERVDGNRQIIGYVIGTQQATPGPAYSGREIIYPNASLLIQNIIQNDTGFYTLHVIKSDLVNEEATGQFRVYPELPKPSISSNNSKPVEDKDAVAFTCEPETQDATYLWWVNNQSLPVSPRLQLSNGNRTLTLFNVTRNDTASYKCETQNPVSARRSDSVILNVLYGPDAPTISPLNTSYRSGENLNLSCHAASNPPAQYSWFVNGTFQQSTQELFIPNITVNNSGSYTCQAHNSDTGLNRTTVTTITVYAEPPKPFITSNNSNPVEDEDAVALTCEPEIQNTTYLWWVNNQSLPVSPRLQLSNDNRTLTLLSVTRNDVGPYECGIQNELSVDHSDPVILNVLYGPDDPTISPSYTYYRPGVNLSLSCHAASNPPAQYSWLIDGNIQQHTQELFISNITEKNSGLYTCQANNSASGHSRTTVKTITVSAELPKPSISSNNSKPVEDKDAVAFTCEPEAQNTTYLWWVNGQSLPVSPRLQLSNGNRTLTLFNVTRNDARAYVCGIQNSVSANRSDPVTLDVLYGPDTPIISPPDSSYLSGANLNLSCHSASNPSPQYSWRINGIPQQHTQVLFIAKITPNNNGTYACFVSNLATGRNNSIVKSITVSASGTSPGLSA
As to the kind of experiment: cell-based or functional assay.

The target in test [3] is T3, hu-MCSP(D3 domain)-avi-his (human, UniProt Q6UVK1 1582-2224).
T3 construct: Recombinant D3 domain with avi and his tags; also called human MCSP(D3 domain)-avi-his; Human MCSP D3
T3 sequence: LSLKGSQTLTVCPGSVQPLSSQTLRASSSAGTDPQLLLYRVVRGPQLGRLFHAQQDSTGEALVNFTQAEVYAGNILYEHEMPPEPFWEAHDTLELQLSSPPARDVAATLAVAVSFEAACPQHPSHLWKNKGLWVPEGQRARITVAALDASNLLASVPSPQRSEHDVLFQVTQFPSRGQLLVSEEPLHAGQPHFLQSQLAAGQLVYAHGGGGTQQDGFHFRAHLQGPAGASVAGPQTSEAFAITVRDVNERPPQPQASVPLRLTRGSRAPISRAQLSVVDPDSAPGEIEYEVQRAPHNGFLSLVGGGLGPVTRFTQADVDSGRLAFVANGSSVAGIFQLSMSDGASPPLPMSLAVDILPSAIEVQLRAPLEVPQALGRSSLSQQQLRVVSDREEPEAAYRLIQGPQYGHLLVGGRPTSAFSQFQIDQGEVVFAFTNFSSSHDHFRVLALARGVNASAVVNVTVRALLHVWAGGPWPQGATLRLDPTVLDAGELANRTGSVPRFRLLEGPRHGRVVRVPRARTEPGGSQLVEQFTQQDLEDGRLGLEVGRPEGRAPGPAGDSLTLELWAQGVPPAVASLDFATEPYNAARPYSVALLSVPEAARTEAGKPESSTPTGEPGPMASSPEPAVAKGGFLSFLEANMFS
As to the kind of experiment: SPR Biacore T200, 25 C; avidity: MCSP D3 captured via anti-Penta His, IgG as analyte. Here is the method:
(§1) For analyzing the avidity of the interaction of different anti-MCSP IgGs to human and cynomolgus MCSP D3 direct coupling of around 9,500 resonance units (RU) of the anti-Penta His antibody (Qiagen) was performed on a CM5 chip at pH 5.0 using the standard amine coupling kit (Biacore, Freiburg/Germany). Antigens were captured for 60 s at 30 nM with 10 μl/min respectively. IgGs were passed at a concentration of 0.0064-100 nM with a flowrate of 30 μl/min through the flow cells over 280 s. The dissociation was monitored for 180 s. Bulk refractive index differences were corrected for by subtracting the response obtained on reference flow cell. […] For affinity measurements IgGs were captured on a CM5 sensorchip surface with immobilized anti human Fc. Capture IgG was coupled to the sensorchip surface by direct immobilization of around 9,500 resonance units (RU) at pH 5.0 using the standard amine coupling kit (Biacore, Freiburg/Germany). IgGs are captured for 25 s at 10 nM with 30 μl/min. Human and cynomolgus MCSP D3 were passed at a concentration of 2-500 nM with a flowrate of 30 μl/min through the flow cells over 120 s. The dissociation was monitored for 60 s. […] Bulk refractive index differences were corrected for by subtracting the response obtained on reference flow cell.
(Surface plasmon resonance follows binding to a sensor surface in real time, without labels.)

Test [4] deals with T4, cynomolgus MCSP D3 (cynomolgus, UniProt Q6UVK1 1582-2224 (human entry), limits assumed).
T4 construct: also called Cyno MCSP; cynomolgus homologue
T4 chain: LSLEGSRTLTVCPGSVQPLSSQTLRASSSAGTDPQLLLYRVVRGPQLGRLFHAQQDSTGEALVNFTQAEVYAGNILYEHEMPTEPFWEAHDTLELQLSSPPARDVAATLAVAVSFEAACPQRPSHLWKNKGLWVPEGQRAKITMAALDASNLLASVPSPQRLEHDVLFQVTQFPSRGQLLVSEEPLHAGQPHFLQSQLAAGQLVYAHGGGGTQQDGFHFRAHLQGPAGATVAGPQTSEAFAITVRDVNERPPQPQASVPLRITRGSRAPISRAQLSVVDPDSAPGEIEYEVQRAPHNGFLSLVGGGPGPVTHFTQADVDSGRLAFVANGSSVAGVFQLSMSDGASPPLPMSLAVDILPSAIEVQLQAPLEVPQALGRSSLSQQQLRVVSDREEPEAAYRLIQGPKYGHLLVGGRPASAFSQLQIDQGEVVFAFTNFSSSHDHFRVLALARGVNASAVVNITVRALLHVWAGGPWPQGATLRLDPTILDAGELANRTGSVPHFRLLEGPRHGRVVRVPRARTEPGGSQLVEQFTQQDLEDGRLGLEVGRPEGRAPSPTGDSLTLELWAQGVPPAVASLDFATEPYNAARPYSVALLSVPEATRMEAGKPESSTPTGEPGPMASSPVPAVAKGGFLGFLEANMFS
The test is described as above. Here is the method:
as §1

Test [5] has as its target T3, hu-MCSP(D3 domain)-avi-his. As to the kind of experiment: SPR ProteOn XPR36, 25 C; IgG captured via anti-human F(ab')2, MCSP D3 as analyte.
Test [6] concerns the target T4, cynomolgus MCSP D3. Described as above.
In test [7] the target is T3, hu-MCSP(D3 domain)-avi-his. In words: SPR Biacore T200, 25 C; affinity: IgG captured via anti-human Fc, MCSP D3 as analyte. Here is the method: as §1
Test [8] has as its target T4, cynomolgus MCSP D3. Described as above. Here is the method:
as §1

Test [9] addresses T3, hu-MCSP(D3 domain)-avi-his. As to the kind of experiment: ratio of ProteOn IgG KD, parent M4-3/ML2 against variant.
Test [10] addresses T4, cynomolgus MCSP D3. Described as above.

Changes are numbered by the printed parent chain.

T1 sequence (P07766 23-207 limits assumed): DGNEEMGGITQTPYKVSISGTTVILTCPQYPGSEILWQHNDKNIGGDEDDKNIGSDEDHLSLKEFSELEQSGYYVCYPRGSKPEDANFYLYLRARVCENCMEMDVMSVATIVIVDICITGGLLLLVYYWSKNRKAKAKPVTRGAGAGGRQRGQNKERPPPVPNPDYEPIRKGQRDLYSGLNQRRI

B1: 1 + 1 IgG-Crossfab light chain fusion (CH1A1A/V9) (anti-CEA/anti-huCD3) (bispecific antibody)
chain 1: DIQMTQSPSSLSASVGDRVTITCRASQDIRNYLNWYQQKPGKAPKLLIYYTSRLESGVPSRFSGSGSGTDYTLTISSLQPEDFATYYCQQGNTLPWTFGQGTKVEIKSSASTKGPSVFPLAPSSKSTSGGTAALGCLVKDYFPEPVTVSWNSGALTSGVHTFPAVLQSSGLYSLSSVVTVPSSSLGTQTYICNVNHKPSNTKVDKKVEPKSC
chain 2: DIQMTQSPSSLSASVGDRVTITCKASAAVGTYVAWYQQKPGKAPKLLIYSASYRKRGVPSRFSGSGSGTDFTLTISSLQPEDFATYYCHQYYTYPLFTFGQGTKLEIKRTVAAPSVFIFPPSDEQLKSGTASVVCLLNNFYPREAKVQWKVDNALQSGNSQESVTEQDSKDSTYSLSSTLTLSKADYEKHKVYACEVTHQGLSSPVTKSFNRGECGGGGSGGGGSGGGGSGGGGSEVQLVESGGGLVQPGGSLRLSCAASGYSFTGYTMNWVRQAPGKGLEWVALINPYKGVSTYNQKFKDRFTISVDKSKNTAYLQMNSLRAEDTAVYYCARSGYYGDSDWYFDVWGQGTLVTVSSASVAAPSVFIFPPSDEQLKSGTASVVCLLNNFYPREAKVQWKVDNALQSGNSQESVTEQDSKDSTYSLSSTLTLSKADYEKHKVYACEVTHQGLSSPVTKSFNRGEC
chain 3: not shown
chain 4: DKTHTCPPCPAPEAAGGPSVFLFPPKPKDTLMISRTPEVTCVVVDVSHEDPEVKFNWYVDGVEVHNAKTKPREEQYNSTYRVVSVLTVLHQDWLNGKEYKCKVSNKALGAPIEKTISKAKGQPREPQVCTLPPSRDELTKNQVSLSCAVKGFYPSDIAVEWESNGQPENNYKTTPPVLDSDGSFFLVSKLTVDKSRWQQGNVFSCSVMHEALHNHYTQKSLSLSPGK
notes: also called “1+1 IgG Crossfab light chain (LC) fusion”
B1: the binding result in test [1] is listed as “binds”. Also, in test [2], the “EC50 of T cell-mediated killing (LDH release), LS-174T cells, human PBMCs E:T 10:1, 28 h” value came to 1.56 nM; the “EC50 of T cell-mediated killing (LDH release), MC38-huCEA cells, human PBMCs E:T 10:1, 24 h” value is around 3.2 nM; the “EC50 of T cell-mediated killing (LDH release), MKN-45 cells, human PBMCs E:T 10:1, 28 h” value amounted to 0.213 nM.

B2: Parental M4-3/ML2 IgG (antibody, V domains shown)
VH: QVQLQESGPGLVKPSQTLSLTCTVSGGSITSGYYWNWIRQHPGKGLEWIGYITYDGSNNYNPSLKSRVTISRDTSKNQFSLKLSSVTAADTAVYYCADFDYWGQGTLVTVSS
VL: DIQMTQSPSSLSASVGDRVTITCRASQGIRNYLNWYQQKPGKAPKLLIYYTSSLHSGVPSRFSGSGSGTDFTLTISSLQPEDFATYYCQQYSKLPWTFGQGTKVEIK
notes: Human IgG1 format, from mammalian production; also called M4-3 ML2 (parental); anti-MCSP antibody M4-3/ML2
As to B2, the Kd in test [3] was 0.009 nM; in the test with cynomolgus MCSP D3 [4], 0.0123 nM; in test [5] it was 2 nM; with cynomolgus MCSP D3 [6], 2 nM; in [7], 8.6 nM; with cynomolgus MCSP D3 [8], 11.4 nM.

B3: M4-3(C1)/ML2(C5) IgG (antibody, V domains shown)
VH: B2 VH with Y54F
VL: B2 VL with Q27R, N31E, S52G, K93E
notes: Human IgG1
Take B3: the Kd in test [3] turned out to be 0.0046 nM; with cynomolgus MCSP D3 [4], 0.0044 nM; in [5] it was 0.2 nM; in the test with cynomolgus MCSP D3 [6], 0.3 nM; in test [7], 1.8 nM; in the test with cynomolgus MCSP D3 [8], 1.3 nM. Also, the “Fold increase over parent” value in [9] turned out to be 10 fold; with cynomolgus MCSP D3 [10] it was 6.7 fold.

B4: M4-3(C1)/ML2(E10) IgG (antibody, V domains shown)
VH: B2 VH with Y54F
VL: B2 VL with Q27Y, N31G, Y87H
notes: Human IgG1
Turning to B4, the Kd in test [3] came out at 0.0063 nM; in the test with cynomolgus MCSP D3 [4] it was 0.0044 nM; in test [5], 0.5 nM; with cynomolgus MCSP D3 [6] it was 0.6 nM; in test [7], 4.6 nM; in the test with cynomolgus MCSP D3 [8] it was 3.8 nM. Besides, the “Fold increase over parent” value in test [9] is 4 fold; with cynomolgus MCSP D3 [10], 3.3 fold.

(Values after patent US20140242080A1 (Hoffmann-La Roche, published 2014).)
